The experiment has as its target T1, human proBDNF protein (prokaryotically expressed, Example 1) (human, UniProt P23560 19-247).
T1 construct: Vector-derived residues or tags are not described; also called human proBDNF antigen; recombinant human proBDNF
T1 sequence (looked up): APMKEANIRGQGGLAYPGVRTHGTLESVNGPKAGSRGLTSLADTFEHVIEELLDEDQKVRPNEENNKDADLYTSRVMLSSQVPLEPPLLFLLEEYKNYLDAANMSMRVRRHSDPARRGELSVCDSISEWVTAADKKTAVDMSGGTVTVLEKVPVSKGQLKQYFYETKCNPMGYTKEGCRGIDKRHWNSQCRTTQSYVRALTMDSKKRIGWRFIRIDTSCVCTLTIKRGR
In words: SPR, Biacore T200; human proBDNF coated directly on the chip (~500 RU); 2B11 injected at 10-160 nM, 25 C; 1:1 Langmuir model. On the procedure: Binding affinity of 2B11 against recombinant human proBDNF was measured by Surface Plasmon resonance (SPR) using Biacore T200™. 1×HBS-EP+ buffer was used as running buffer. Recombinant human proBDNF was directly coated on CMS biosensor chip to achieve approximately 500 response units (RU). For kinetics measurements, two-fold serial dilutions (10 nM to 160 nM) were injected at 25° C. with a flow rate of 30u1/min. Association rate (Kₐ) and dissociation rate (Kd) were calculated using a simple one to one Langmuir binding model (BIAcore Evaluation software version 3.2). The equilibrium dissociation constant (kD) was calculated as the ratio Kd/Kₐ. The binding affinity of 2B11 to human proBDNF is reported below: […]
(Surface plasmon resonance follows binding to a sensor surface in real time, without labels.)

B1: anti-proBDNF monoclonal antibody 2B11 (antibody, human IgG1, kappa, V domains shown)
VH: EVKVVESGGGLVQPGGSLRLSCATSGFTFTDYYMSWVRQPPGKALEWLGFIRNKANGYTTEYSSSVKGRFTISRDNSQSILYLQMNTLRAEDSATYYCAITMDYWGQGTSVTVSS
VL: DIQMTQSPASLSASVGETVTITCRASGNIHNYLAWYQKKQGKSPHLLVYNAQTLADGVPSRFSGSASGTQYSLKIDSLQPEDFGSYYCQHFWSTPFTFGSGTKLEIKR
notes: also called murine monoclonal antibody 2B11; antibody secreted from clone 2B11
In general, Kd refers to the equilibrium constant for the complex coming apart. Read a low Kd as tighter binding. In general, koff refers to the first-order rate constant of dissociation. Read a low koff as slow dissociation. The term kon denotes a measure of how fast the partners come together. Read a low kon as slower complex formation. The molecule B1 displayed a Kd of 4.04 nM, an off-rate (koff) of 0.00116 s⁻¹ and a kon of 288000 M⁻¹ s⁻¹.

These data come from patent publication US20210017264A1 (SHANGHAI YILE BIOTECHNOLOGY, published 2021).
